Measurements published in publication PMC3548456.

Target: CI-MPR domains 10-13, receptor construct 1288 (wild-type IGF-II binding domain) (human) (UniProt P11717)
Experiment: SPR

Sequence of CI-MPR domains 10-13, receptor construct 1288 (wild-type IGF-II binding domain) (human) (P11717 1363-1988): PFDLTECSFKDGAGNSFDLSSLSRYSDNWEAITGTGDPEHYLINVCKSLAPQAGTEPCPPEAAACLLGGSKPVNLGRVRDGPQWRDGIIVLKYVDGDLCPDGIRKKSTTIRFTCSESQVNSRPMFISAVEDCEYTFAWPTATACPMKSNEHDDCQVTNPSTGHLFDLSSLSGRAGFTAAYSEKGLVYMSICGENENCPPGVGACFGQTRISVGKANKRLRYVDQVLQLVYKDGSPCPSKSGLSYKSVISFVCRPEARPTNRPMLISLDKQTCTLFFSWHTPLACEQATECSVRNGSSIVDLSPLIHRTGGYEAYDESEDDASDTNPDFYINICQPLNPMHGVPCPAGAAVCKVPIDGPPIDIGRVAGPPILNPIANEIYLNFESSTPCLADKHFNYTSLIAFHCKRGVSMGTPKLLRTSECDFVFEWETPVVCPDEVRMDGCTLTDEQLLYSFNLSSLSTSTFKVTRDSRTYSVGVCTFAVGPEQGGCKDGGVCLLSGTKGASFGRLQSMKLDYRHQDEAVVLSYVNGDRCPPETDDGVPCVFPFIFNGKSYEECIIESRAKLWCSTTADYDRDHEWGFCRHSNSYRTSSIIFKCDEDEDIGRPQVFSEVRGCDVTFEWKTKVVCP

Kd [nM] | koff [s⁻¹] | Substance
8.8 | 0.0034 | full-length recombinant IGF-II (ligand)
21 | 0.0058 | GILT-tagged GAA (BMN 701) (from UniProt P01344 32-91; P10253 70-952) (enzyme)
